Substitutions are numbered along the chain they refer to.

Test [1] addresses T1, human FcRH3 (BIACORE analyte) (human, UniProt Q96P31 18-573, limits assumed).
T1 construct: also called huFcRH3
T1 sequence (looked up): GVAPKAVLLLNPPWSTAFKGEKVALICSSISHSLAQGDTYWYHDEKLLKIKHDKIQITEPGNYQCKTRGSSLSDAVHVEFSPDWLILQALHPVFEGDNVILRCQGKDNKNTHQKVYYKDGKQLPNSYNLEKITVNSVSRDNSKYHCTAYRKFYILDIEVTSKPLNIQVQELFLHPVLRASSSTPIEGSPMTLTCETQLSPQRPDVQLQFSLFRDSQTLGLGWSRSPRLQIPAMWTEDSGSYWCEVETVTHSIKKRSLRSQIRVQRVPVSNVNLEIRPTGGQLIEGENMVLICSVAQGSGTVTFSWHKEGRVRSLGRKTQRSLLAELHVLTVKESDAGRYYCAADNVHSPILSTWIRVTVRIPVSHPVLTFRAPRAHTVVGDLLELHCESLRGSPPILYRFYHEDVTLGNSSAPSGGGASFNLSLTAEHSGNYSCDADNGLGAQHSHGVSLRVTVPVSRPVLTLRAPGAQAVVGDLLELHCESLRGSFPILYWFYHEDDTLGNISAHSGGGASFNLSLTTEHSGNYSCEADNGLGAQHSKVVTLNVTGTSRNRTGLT
As to the kind of experiment: BIACORE. A general note: In SPR one partner is held on a chip, and binding of the other changes the refractive index at the surface.

In test [2] the target is T2, cynomolgus FcRH5 (full-length, on cells) (cynomolgus monkey).
T2 construct: also called SVT2-Cyno-FcRH5; cyno FcRH5
T2 chain: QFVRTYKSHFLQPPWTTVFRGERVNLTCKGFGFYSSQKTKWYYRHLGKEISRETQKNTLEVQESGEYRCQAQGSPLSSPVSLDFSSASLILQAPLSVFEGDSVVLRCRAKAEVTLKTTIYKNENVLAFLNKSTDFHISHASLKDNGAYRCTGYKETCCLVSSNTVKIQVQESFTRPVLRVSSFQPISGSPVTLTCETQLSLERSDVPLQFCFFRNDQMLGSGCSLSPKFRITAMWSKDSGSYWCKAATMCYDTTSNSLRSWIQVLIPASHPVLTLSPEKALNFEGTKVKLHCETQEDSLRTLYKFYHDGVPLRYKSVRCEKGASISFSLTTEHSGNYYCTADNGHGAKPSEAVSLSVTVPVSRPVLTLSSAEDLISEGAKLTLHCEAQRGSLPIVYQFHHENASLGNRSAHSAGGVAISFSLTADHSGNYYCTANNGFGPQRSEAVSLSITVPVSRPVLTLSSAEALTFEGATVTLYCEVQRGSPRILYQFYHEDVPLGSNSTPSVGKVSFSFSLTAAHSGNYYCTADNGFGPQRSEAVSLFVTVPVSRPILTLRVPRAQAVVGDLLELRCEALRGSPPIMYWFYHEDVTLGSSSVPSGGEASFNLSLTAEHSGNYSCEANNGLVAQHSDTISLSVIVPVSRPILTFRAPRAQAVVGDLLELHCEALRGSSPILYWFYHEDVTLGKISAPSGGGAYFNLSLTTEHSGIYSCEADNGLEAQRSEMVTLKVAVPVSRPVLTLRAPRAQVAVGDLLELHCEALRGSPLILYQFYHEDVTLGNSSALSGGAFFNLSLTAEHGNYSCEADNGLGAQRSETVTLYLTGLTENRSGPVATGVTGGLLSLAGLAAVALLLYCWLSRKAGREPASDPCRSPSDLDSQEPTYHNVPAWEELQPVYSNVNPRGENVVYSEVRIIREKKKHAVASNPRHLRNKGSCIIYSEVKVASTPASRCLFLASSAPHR
Description: FACS, SVT2 cells, 3 µg/ml. As for the experimental part:
(§1) Human FcRH5, cyno FcRH5, human FcRH1, FcRH2, FcRH3, and FcRH4 transfected mouse SVT2 cells were used to test binding and cross-reactivity of FcRH5 TDBs. The method was carried out as follows. Cultured SVT2 cells were lifted using non-enzyme cell dissociation buffer (Sigma, #C5914). 1×10⁵ cells were suspended in 100 μL and incubated with FcRH5 TDBs at 3 μg/ml. […] Cells were washed twice with FACS buffer before flow cytometry analysis was carried out on a FACSCalibur.
(Flow cytometry measures light scatter and fluorescence of single cells or particles in a stream.)

The target in test [3] is T3, human FcRH3 (full-length, on SVT2 cells) (human, UniProt Q96P31 18-734).
T3 construct: whole, on cells; also called SVT2-FcRH3
T3 sequence (looked up): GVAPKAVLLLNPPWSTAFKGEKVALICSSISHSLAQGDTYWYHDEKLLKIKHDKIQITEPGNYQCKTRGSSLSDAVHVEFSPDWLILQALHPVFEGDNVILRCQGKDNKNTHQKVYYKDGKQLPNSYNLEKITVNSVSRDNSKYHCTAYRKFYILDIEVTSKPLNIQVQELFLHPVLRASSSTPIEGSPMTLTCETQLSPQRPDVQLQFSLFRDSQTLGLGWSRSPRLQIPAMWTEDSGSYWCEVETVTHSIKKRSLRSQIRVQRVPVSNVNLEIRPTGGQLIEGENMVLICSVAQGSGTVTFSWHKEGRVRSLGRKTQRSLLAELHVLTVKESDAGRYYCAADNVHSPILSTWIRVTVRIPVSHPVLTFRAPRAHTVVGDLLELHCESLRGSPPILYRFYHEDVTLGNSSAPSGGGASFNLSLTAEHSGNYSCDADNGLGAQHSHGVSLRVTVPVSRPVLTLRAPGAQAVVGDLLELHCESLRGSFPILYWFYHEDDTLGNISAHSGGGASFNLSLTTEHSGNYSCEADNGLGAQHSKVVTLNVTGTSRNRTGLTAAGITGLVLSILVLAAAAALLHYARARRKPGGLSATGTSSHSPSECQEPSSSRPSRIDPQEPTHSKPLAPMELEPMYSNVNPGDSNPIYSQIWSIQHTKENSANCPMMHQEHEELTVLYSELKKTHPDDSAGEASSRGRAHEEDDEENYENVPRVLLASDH
As to the kind of experiment: FACS, SVT2 cells, 3 µg/ml. As to the method:
as §1

B1: hu1G7.v1.4/38E4.v1 TDB (bispecific antibody, V domains shown)
VH 1: EVQLVESGPGLVKPSETLSLTCTVSGFSLTRFGVHWVRQPPGKGLEWLGVIWRGGSTDYNAAFMSRLTISKDNSKNQVSLKLSSVTAADTAVYYCSNHYYGSSDYALDNWGQGTLVTVSS
VL 1: DIQMTQSPSSLSASVGDRVTITCKASQDVRNLVVWFQQKPGKAPKLLIYSGSYRYSGVPSRFSGSGSGTDFTLTISSLQPEDFATYYCQQHYSPPYTFGQGTKVEIK
VH 2: EVQLVQSGAEVKKPGASVKVSCKASGFTFTSYYIHWVRQAPGQGLEWIGWIYPENDNTKYNEKFKDRVTITADTSTSTAYLELSSLRSEDTAVYYCARDGYSRYYFDYWGQGTLVTVSS
VL 2: DIVMTQSPDSLAVSLGERATINCKSSQSLLNSRTRKNYLAWYQQKPGQSPKLLIYWTSTRKSGVPDRFSGSGSGTDFTLTISSLQAEDVAVYYCKQSFILRTFGQGTKVEIK
notes: knob-into-hole TDB; also called 1G7.v1.4 TDB; 1G7.v1.4 (TDB format)
As a reminder, the Kd is the free concentration of one partner at which half of the binding sites on the other are occupied at equilibrium, for simple one-to-one binding. Regarding B1, the Kd in test [1] is around 80 nM.

B2: hu1G7.v1.13.1/38E4.v1 TDB (bispecific antibody, V domains shown)
VH 1: B1 VH 1
VL 1: B1 VL 1 with S52Y, S56T, S93Q
VH 2: B1 VH 2
VL 2: B1 VL 2
notes: knob-into-hole TDB; also called 1G7.v1.13.1 TDB
As for B2, the binding result in test [2] and in test [3] was “binds” each time.

B3: 1G7.v85/38E4.v1 TDB (bispecific antibody, V domains shown)
VH 1: B1 VH 1 with M64V
VL 1: B1 VL 1
VH 2: B1 VH 2
VL 2: B1 VL 2
notes: knob-into-hole TDB; also called 1G7.v85 TDB; 1G7.v85 (TDB format)
In the case of B3, the Kd in test [1] was around 90 nM.

B4: hu1G7.v1.2/38E4.v1 TDB (bispecific antibody, V domains shown)
VH 1: B1 VH 1
VL 1: B1 VL 1 with S52Y, Y53N, H91Q, Y92F, S93Q
VH 2: B1 VH 2
VL 2: B1 VL 2
notes: knob-into-hole TDB; also called 1G7.v1.2 TDB
As for B4, the binding result in test [2] and in test [3] was “binds” throughout.

B5: hu1G7.v1.3/38E4.v1 TDB (bispecific antibody, V domains shown)
VH 1: B1 VH 1
VL 1: B1 VL 1 with L32I, H91Q
VH 2: B1 VH 2
VL 2: B1 VL 2
notes: knob-into-hole TDB; also called 1G7.v1.3 TDB
Consider B5, for which the binding result in test [2] and in test [3] was “binds” each time.

B6: hu1G7.v1.13/38E4.v1 TDB (bispecific antibody, V domains shown)
VH 1: B1 VH 1 with L48I
VL 1: B1 VL 1 with S52Y, S56T, S93Q
VH 2: B1 VH 2
VL 2: B1 VL 2
notes: knob-into-hole TDB; also called 1G7.v1.13 TDB
As to B6, the binding result in test [2] and in test [3] was “binds” in each case.

B7: hu1G7.v1.1/38E4.v1 TDB (bispecific antibody, V domains shown)
VH 1: B1 VH 1
VL 1: B1 VL 1 with H91Q
VH 2: B1 VH 2
VL 2: B1 VL 2
notes: knob-into-hole TDB; also called 1G7.v1.1 TDB
Regarding B7, the binding result in test [2] and in test [3] was “binds” each time.

(Values after US20240383984A1 (Genentech, published 2024).)
